This assay concerns the target histone H3 K115C (UniProt P84233). Nature of the assay: cross-linking.

As to “histone H3 K115C (from UniProt P84233 2-136) (natural protein)”, the efficiency of crosslinking at H3 K115C (H3-H3’) stood at 80%.

(Values after article PMC3428624.)
